Laboratory results as given in US12673985B2, “Method for the treatment or prophylaxis of cancer by targeting the extracellular portion of keratin 14 (KRT14) residing on cancer cells” (Hudson Institute of Medical Research, priority 2019, dated 2026).

B1: rK14: exogenously added, full-length recombinant KRT14 protein (protein)
chain: MTTCSRQFTSSSSMKGSCGIGGGIGGGSSRISSVLAGGSCRAPSTYGGGLSVSSSRFSSGGACGLGGGYGGGFSSSSSSFGSGFGGGYGGGLGAGLGGGFGGGFAGGDGLLVGSEKVTMQNLNDRLASYLDKVRALEEANADLEVKIRDWYQRQRPAEIKDYSPYFKTIEDLRNKILTATVDNANVLLQIDNARLAADDFRTKYETELNLRMSVEADINGLRRVLDELTLARADLEMQIESLKEELAYLKKNHEEEMNALRGQVGGDVNVEMDAAPGVDLSRILNEMRDQYEKMAEKNRKDAEEWFFTKTEELNREVATNSELVQSGKSEISELRRTMQNLEIELQSQLSMKASLENSLEETKGRYCMQLAQIQEMIGSVEEQLAQLRCEMEQQNQEYKILLDVKTRLEQEIATYRRLLEGEDAHLSSSQFSSGSQSSRDVTSSSRQIRTKVMDVHDGKVVSTHEQVLRTKN

What was measured:
[1] = tested on: OVCAR4 ovarian cancer cells; assay: Real time cell analysis (RTCA) of proliferation with cisplatin and mAb AN-17; format: cell-based, human
Protocol: Real time cell analysis (RTCA) was conducted as previously described (PMID: 31443478; Bilandzic et al., Cancers (Basel). 2019; 11(9), E1228) using an xCELLigence RTCA SP 96-well instrument (ACEA Biosciences). Cell lines were synchronized in G0 by overnight incubation in serum-free media and were seeded at 0.5×10^3 cells/0.15 ml/per well. […] Impedance readings were taken every 15 minutes for the experimental duration. mAb AN-17 comprises the heavy chain variable region of SEQ ID NO:3 and the light chain variable region of SEQ ID NO:5, encoded by the nucleic acid sequences of SEQ ID NOs:2 and 4, respectively (see also FIGS. 21 and 22A-22B).

ovarian cancer cells = assay: Real-time in vitro invasion assay (xCELLigence RTCA) with anti-KRT14 antibodies, rK14 and competing peptides; format: cell-based, human; details: for restoration of invasive capacity in competition with anti N-terminal KRT14 antibody: competition assay (FIG. 4B, 5B)
Protocol: xCELLigence Real Time Cell Analyses (RTCA). Real time cell analyses (RTCA) were conducted using an xCELLigence RTCA SP 96-well instrument (ACEA Biosciences). Cell lines were synchronized in Go phase by overnight incubation in serum-free media prior to commencement. For proliferation assays, cells were seeded at 0.5×10^3 cells/0.14 ml/per well (as outlined in the experimental text), and impedance readings taken every 5 minutes for 8 hours (in order to monitor cell adhesion), and subsequently every 15 minutes for 24 hours (to monitor cell proliferation). For invasion assays the upper chamber of a CIM-16 well plate was coated with Matrigel matrix (1:10 in SFM; BD Biosciences, San Jose, CA). Cells were seeded into the upper chamber (as above), with media+/−10% v/v FBS added to the lower chamber. All assays were performed in duplicate or triplicate, with at least three independent experiments.
Using flow cytometry and immunocytochemical staining of intact cells, it was observed that the N terminus of KRT14 is exposed at the cell surface (FIGS. 4A-4B). Consistent with other studies (Papafotiou et al. (2016) supra; Rock et al. (2009) supra), KRT14+ cells represented only a subset of tumor cell population (FIG. 4A). […] Thus, loss of invasive capacity was directly due to binding of the antibody of KRT14. Moreover, this effect is mediated by antibody binding to the N-terminus of KRT14; and the N-terminus was exposed on the external side of cells, accessible to antibody binding.
Antigenicity and hydrophobicity plots were used to examine the first 200 amino acids of KRT14 in silico (FIG. 5A). Five potentially antigenic regions were predicted, and six peptides encompassing to these regions were synthesized for use in further competition assays. Blockade of the N-terminal antibody by peptides #4 and #5 restored invasion (FIG. 5B) and migration (FIG. 5C) of ovarian cancer cells in vitro. […] Based on antibody and peptide competition assays, the surface-exposed region of the KRT14 protein was defined within the amino sequence NH2-[…] (SEQ ID NO:1). […]

| Molecule | cell viability and proliferation ([1]; cisplatin alone at 1.25 μg/ml) | cell viability and proliferation ([1]; cisplatin alone at 15 μg/ml or 20 μg/ml) | invasion by ovarian cancer cells in vitro (ovarian cancer cells; antibody or rK14 added exogenously (FIG. 4B)) | restoration of invasive capacity in competition with anti N-terminal KRT14 antibody (ovarian cancer cells) | restoration of invasive capacity in competition with anti N-terminal KRT14 antibody (ovarian cancer cells; listed as recombinant KRT14 protein) |
| --- | --- | --- | --- | --- | --- |
| N.N.[Cl][Pt][Cl] [cisplatin, reference compound] | sub-lethal and cells continued to proliferate | complete cell death |  |  |  |
| B1 |  |  | had no effect alone | successfully competed with a N-term antibody to restore invasive capacity | could compete for antibody binding, and resorted invasion in vitro |
